Results from PMC3656109.

How the values were obtained:
[1] = target: KSHV gH (V5 epitope-tagged)/gL complex (Kaposi's sarcoma-associated herpesvirus (KSHV, HHV-8)) (UniProt F5HAK9)
[2] = target: RRV 26-95 gH (V5 epitope-tagged)/gL complex (rhesus monkey rhadinovirus (RRV) strain 26-95)

Sequence of UniProt F5HAK9 (F5HAK9 whole entry, looked up, one chain of several): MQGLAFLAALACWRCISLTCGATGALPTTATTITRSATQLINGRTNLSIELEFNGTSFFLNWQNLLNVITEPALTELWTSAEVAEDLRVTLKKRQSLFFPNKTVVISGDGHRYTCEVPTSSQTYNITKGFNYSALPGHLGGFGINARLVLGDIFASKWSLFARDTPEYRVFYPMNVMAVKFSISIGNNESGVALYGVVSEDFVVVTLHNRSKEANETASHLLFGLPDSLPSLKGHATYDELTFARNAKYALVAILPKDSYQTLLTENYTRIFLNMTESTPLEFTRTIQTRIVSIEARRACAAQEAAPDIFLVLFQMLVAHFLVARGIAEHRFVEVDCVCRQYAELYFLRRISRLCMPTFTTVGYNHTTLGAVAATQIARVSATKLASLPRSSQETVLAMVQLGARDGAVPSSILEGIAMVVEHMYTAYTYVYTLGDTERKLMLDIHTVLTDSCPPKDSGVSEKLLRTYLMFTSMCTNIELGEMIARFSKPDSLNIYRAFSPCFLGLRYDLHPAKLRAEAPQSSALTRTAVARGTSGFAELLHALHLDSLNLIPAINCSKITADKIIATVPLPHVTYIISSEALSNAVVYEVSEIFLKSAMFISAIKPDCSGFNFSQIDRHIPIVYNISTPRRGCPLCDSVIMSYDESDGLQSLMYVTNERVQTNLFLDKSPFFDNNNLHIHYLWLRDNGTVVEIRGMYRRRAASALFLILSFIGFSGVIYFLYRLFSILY

EphA7-Fc (from UniProt Q15375 28-555) (Fc fusion)
entry of KSHV into rhesus fibroblasts after pre-incubation of the virus with EphA7-Fc (1 to 20 µg/ml; no block at 1 µg/ml, value at 20 µg/ml) [1]: -35%

B1: EphB3-Fc (Fc fusion)
chain: GCRALEETLMDTKWVTSELAWTSHPESGWEEVSGYDEAMNPIRTYQVCNVRESSQNNWLRTGFIWRRDVQRVYVELKFTVRDCNSIPNIPGSCKETFNLFYYEADSDVASASSPFWMENPYVKVDTIAPDESFSRLDAGRVNTKVRSFGPLSKAGFYLAFQDQGACMSLISVRAFYKKCASTTAGFALFPETLTGAEPTSLVIAPGTCIPNAVEVSVPLKLYCNGDGEWMVPVGACTCATGHEPAAKESQCRPCPPGSYKAKQGEGPCLPCPPNSRTTSPAASICTCHNNFYRADSDSADSACTTVPSPPRGVISNVNETSLILEWSEPRDLGGRDDLLYNVICKKCHGAGGASACSRCDDNVEFVPRQLGLTERRVHISHLLAHTRYTFEVQAVNGVSGKSPLPPRYAAVNITTNQAAPSEVPTLRLHSSSGSSLTLSWAPPERPNGVILDYEMKYFEKSEGIASTVTSQMNSVQLDGLRPDARYVVQVRARTVAGYGQYSRPAEFETTSERGSGAQQLQEQLPL
decrease in nuclear accumulation of the RRV genome in HUVEC four hours post infection (real-time PCR) in the presence of 5 µg/ml EphB3-Fc [2]: 74%

B2: EphA1-Fc (Fc fusion)
chain: KEVTLMDTSKAQGELGWLLDPPKDGWSEQQQILNGTPLYMYQDCPMQGRRDTDHWLRSNWIYRGEEASRVHVELQFTVRDCKSFPGGAGPLGCKETFNLLYMESDQDVGIQLRRPLFQKVTTVAADQSFTIRDLVSGSVKLNVERCSLGRLTRRGLYLAFHNPGACVALVSVRVFYQRCPETLNGLAQFPDTLPGPAGLVEVAGTCLPHARASPRPSGAPRMHCSPDGEWLVPVGRCHCEPGYEEGGSGEACVACPSGSYRMDMDTPHCLTCPQQSTAESEGATICTCESGHYRAPGEGPQVACTGPPSAPRNLSFSASGTQLSLRWEPPADTGGRQDVRYSVRCSQCQGTAQDGGPCQPCGVGVHFSPGARGLTTPAVHVNGLEPYANYTFNVEAQNGVSGLGSSGHASTSVSISMGHAESLSGLSLRLVKKEPRQLELTWAGSRPRSPGANLTYELHVLNQDEERYQMVLEPRVLLTELQPDTTYIVRVRMLTPLGPGPFSPDHEFRTSPPVSRGLTGGE
entry of KSHV into rhesus fibroblasts after pre-incubation of the virus with EphA1-Fc (1 to 20 µg/ml; no block at 1 µg/ml, value at 20 µg/ml) [1]: -22%
